# Assay results as given in publication PMC3536758.
# Biological target: T1, MBP-ComKBco (Bacillus coagulans DSM 1) (UniProt K4MVI2)
# T1 sequence: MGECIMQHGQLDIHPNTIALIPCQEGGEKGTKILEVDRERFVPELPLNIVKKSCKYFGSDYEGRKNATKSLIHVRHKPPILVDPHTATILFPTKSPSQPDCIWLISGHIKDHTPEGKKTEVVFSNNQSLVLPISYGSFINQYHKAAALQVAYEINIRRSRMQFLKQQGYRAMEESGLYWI
# Test: EMSA
# Details: EMSA: binding buffer (composition not given) with poly(dI-dC), premixed on ice, 20 min at 30 C; 6% polyacrylamide gel in 1x TBE, 90 V, 60 min; pH and salt not …
sequence,measurement,value
ACGGGTACCATTTGCCGGAAATCGACGTGCCGGCAGCAGGACATAAAAGTGACCCGGTCGCAATAAAGGGGCAATAAGTTTTCGGCATGTTCATCCTTGCCATTACATATGCTTAATATCGCCCGTTGCTTGCCGGTAGCGAACCAAGAAAATACCATATGCTGAAAGATCAGAGGGATCAAACATGCATGGATTATGGACAGCTTATTTTGCGGGGCCCCGT (double strand) [comCBco promoter],binding,binds more weakly
